Consider one protein from FireProtDB (doi:10.1021/bi048926x).

“And” between values parts separate entries of the source, which are not always exact repeats. Equal values may be shown once.

The term Tm denotes the temperature at which the thermal transition is half complete.

For this data set the following is noted: Pseudomonas aeruginosa (strain ATCC 15692 / DSM 22644 / CIP 104116 / JCM 14847 / LMG 12228 / 1C / PRS 101 / PAO1), pH 7, Thermal, reversible: No, whole UniProt chain shown.

B1: Azurin wild type, P00282 (protein)
chain: MLRKLAAVSLLSLLSAPLLAAECSVDIQGNDQMQFNTNAITVDKSCKQFTVNLSHPGNLPKNVMGHNWVLSTAADMQGVVTDGMASGLDKDYLKPDDSRVIAHTKLIGSGEKDSVTFDVSKLKEGEQYMFFCTFPGHSALMKGTLTLK
On to B1, for which the Tm (Absorbance, Phosphate 10 mM) was found to be 78 °C. Moreover, under “DSC, Potassium phosphate 100 mM”, the “unfolding enthalpy (calorimetric)” value was 141 kcal/mol and 130 kcal/mol and 136 kcal/mol.
